Patent US20220227874A1, “CHIMERIC ANTIGEN RECEPTORS TARGETING EPIDERMAL GROWTH FACTOR RECEPTOR VARIANT III” (published 2022)

Experiments:
[1] = target: T1, EGFRvIII expressed on cells (F98-npEGFRvIII, NCI-H522-EGFRvIII, U87-KO-EGFRvIII) (human); experiment: flow cytometry, F98-EGFRvIII cells; 2nd Ab only 258
[2] = target: T1, EGFRvIII expressed on cells …; experiment: flow cytometry, F98-EGFRvIII cells; 2nd Ab only 2.3
[3] = target: T1, EGFRvIII expressed on cells …; experiment: flow cytometry, EGFRvIII expressing cell line against non-expressing cell lines
[4] = target: T1, EGFRvIII expressed on cells …; experiment: flow cytometry, F98-EGFRvIII cells; 2nd Ab only 322
[5] = target: T1, EGFRvIII expressed on cells …; experiment: flow cytometry, F98-EGFRvIII cells; 2nd Ab only 1.3

Binder | MFI [1] | % positive [2] [%] | fold MFI over non-expressing cell lines [3] [fold] | MFI [4] | % positive [5] [%]
11F10 (antibody, V domains shown) VH: QVTLKESGPVLVKPIETLTLTCTVCGFSLSNPRMGVSWIRQPPGKALEWLGHIFSSDEKSYRLFLRSRLSISKDTSKSQVVLTMTNMDPVDTATYYCARDSSDYEGYFDYWGQGTLVTVSS VL: EIVMTQSPATLSVSPGERTTLSCRASQSVGSNLAWYQQKPGQAPRLLIYGASTRASGVPARFSGSGSGTEFTLTISSLQSEDFAVYSCQEYNNWPFTFGQGTKVEIK | 3280 | 98 | ≥ 10 |  | 
30D8 (antibody, V domains shown) VH: EVQLVESGGGLVKPGGSLRLSCEASGFTFSDAWMSWVRQAPGKGLEWVGRIKSKTDGGTTDYVVPLNGRFIISRDDSRNTLYLQLNNLKTEDTAVYYCTTVPGSYGYWGQGTLVTVSS VL: DIVMTQSPLSLPVTPGEPASISCRSSQSLLHNKRNNYLDWFLQKPGQSPQLLIYLASNRASGVPDRFSGGGSGTDFTLKISRVEAEDVGVYYCMQAQQTPITFGQGTRLEIK |  |  | ≥ 10 | 5160 | 98.6
20G5 (antibody, V domains shown) VH: EVQLVESGGDLVKPGGSLRLSCAASGFTFTNAWMSWVRQAPGKGLEWVGRIKSKIDGGTTDYAAPVKGRFIISRDDSKNTLSLQMNSLKTEDTAMYYCTTAPGGPFDYWGQGSLVTVSS VL: DIVLTQSPLSLPVTPGEPASISCRSSQSLLYSDRRNYLDWFLQKPGQSPHLLIYLGSYRASGVPDRFSGSGSGTDFTLKISRVEAEDVGVYYCMQALQIPITFGQGTRLEIK |  |  |  | 4640 | 98.5
26B9 (antibody, V domains shown) VH: EVQLVESWGVLVKPGGSLRLSCAASGFIFNNAWMSWVRQAPGKGLEWIGRIKSKSDGGTTDYAAPVKDRFTISRDDSKDTLYLQMNGLKTEDTAVYFCTTAPGGPFDYWGQGTLVTVSS VL: DIVLTQSPLSLPVTPGEPASISCRSSQSLLHRDGFNYLDWFLQKPGQSPQLLIYLASSRASGVPDRFSGSDSGTDFTLKISRVEAEDVGVYYCMQALQTPITFGQGTRLEIK |  |  | ≥ 10 | 5400 | 98.6
32A10 (antibody, V domains shown) VH: QVTLKESGPVLVKPTETLTLTCTVSGFSLSNARMGVSWIRQPPGKALEWLAHIFSTDEKSIRRSLRSRLTLSKDTSKSQVVLTMTNMDPVDTATYFCARDSSNYEGYFDYWGQGTLVTVSS VL: EVVMTQSPATLSVSPGERVTLSCRASQSVSSNFAWYQQRPGQAPRLLLYGATTRATGLPGRFSGSGSGTENILTISSLQSEDFAIYFCQQYKDWPFTFGPGSKVDIK | 3350 | 98.3 | ≥ 10 |  | 
11B11 (antibody, V domains shown) VH: QVTLKESGPVLVKPTETLTLTCTVSGFSLSNAKMGVSWIRQPPGKALEWLAHIFSTDEKSIRRSLRSRLTMSKDTSKSQVVLTMTNMDPVDTATYYCVRDSSNYEGYFDYWGQGTLVTVSS VL: EVLMTQSPATLSVSPGERATLSCRASQSVSTNFAWYQQRPGQAPRLLLFGASTRATGIPGRFSGSGSGTENILTISSLQSEDFAIYFCQQYKDWPFTFGPGSKVEIK | 3390 | 98.2 | ≥ 10 |  | 
46E10 (antibody, V domains shown) VH: QVTLKESGPVLVKPTETLTLTCTVSGFSLSNARMGVSWIRQPPGKALEWLAHIFSTDEKSIRRSLRSRLTLSKDTSKSQVVLIMTNMDPVDTATYYCARDSSNYEGYFDYWGQGTLVTVSS VL: EVVMTQSPPNLSVSPGERATLSCRASQSVTSNFAWYQQRPGQSPRLLLYGASTRATGVPGRFSGSGSGTENILTISSLQSEDFAVYFCQQYKDWPFTFGPGSKVDIK | 2990 | 98.7 | ≥ 10 |  | 
21E11 (antibody, V domains shown) VH: QVTLKESGPVLVKPTETLTLTCTVSGFSLSNVRMGVSWIRQPPGKALEWFAHIFSSDEKSIRRSLRSRLTLSKDTSKSQVVLTMTNMDPVDTATYYCARDSSNYEGYFDFWGQGTLVTVSS VL: DMVVTQSPATLSVSPGERATLSCRASQSVGSDLAWYQQPPGQSPRLLIYGASTRATGVPARFSGSGSGTDFTLTITSLESEDFAVYYCQQYNDWPFTFGPGTKVDIK | 3100 | 98.5 | ≥ 10 |  | 
12B2 (antibody, V domains shown) VH: QVTLKESGPVLVKPTETLTLTCTVSGFSLSNPRMGVSWIRQPPGKALEWLGHIFSSDEKSYRLSLRSRLSISKDTSKSQVVLTMTNMDPVDTATYYCVRDSSNYGGYFDYWGQGTLVTVSS VL: EVVMTQSPATLSVSPGERATLSCRASQSVINNLAWYQQKPGQAPRLLIYGTSTRATDIPARFSGSGSGTEFTLTISSLQSEDFAVYYCQDYNNWPFTFGPGTKVDIK | 2750 | 97.9 | ≥ 10 |  | 
19A9 (antibody, V domains shown) VH: QVTLEESGPVLVKPTETLTLTCTVSGFSLSNARMGVSWIRQPPGKAPEWFAHIFSTDEKSLRLSLRSRLTLSKDTSKSQVVLTMTNMDPVDTATYYCARDSSNYEGYFDYWGQGTLVTVSS VL: EVVMTQSPATLSVSPGERATLSCRASQSVNRNLAWYQQKPGQAPRLLIFGTSTRATGIPARFSGSGSGTEFTLTIDSLQSEHSGLYYCQQYNDWPFTFGPGTKVDIK | 3100 | 98.1 | ≥ 10 |  | 
29D5 (antibody, V domains shown) VH: QVTLKESGPVLVKPTETLTLTCTVSGFSLSNPRMGVSWLRQPPGKALEWFAHIFSTDEKSYSPSLRGRLTVSKDTSKSQVVLTLTNMDPVDTATYYCARDSSNYEGYFDYWGQGTLVTVSS VL: KIVMTQSPATLSVSPGERATLSCRANQIVSSNLAWYQQKPGQAPRLLVFGTSTRATGIPIRFSGSGSGTEFTLTVSSLQSEDFAVYVCQQYNDWPFTFGPGTKVDIK | 2830 | 97.9 | ≥ 10 |  | 
14C11 (antibody, V domains shown) VH: QVTLKESGPVLVKPTETLTLTCTVSGFSLNNARMGVSWIRQPPGKALEWFAHIFSTDEKSFRTSLRSRLTLSKDTSKSQVVLTMTNMDPVDTATYYCARDSSNYEGYFDYWGQGILVTVSS VL: EIVMTQSPATLSVSPGERATLSCRASQSVSNNLAWYQQKPGQAPRLLIYGASTRATGVPARFSGSDSGTEFSLTISSLQSEDFAVYFCQQYKDWPFTFGPGTKVEIK | 3210 | 98.2 | ≥ 10 |  | 
42G9 (antibody, V domains shown) VH: QVTLKESGPVLLKPTETLTLTCTVSGFSLSNPRMGVSWIRQPPGKALEWFAHIFSTDEKSLKLSLRSRLTLSKDTSKSQVVLTMTNMAPVDSATYYCARDSSNYEGYFDFWGQGTLVTVSS VL: EVVLTQSPATLSVSPGERATLSCRASQSVRSNLAWYQQKSGQAPRLLIYGSTIRATGVPARFSGSGSGTEFTLTISSLQSEDFAVYYCQQYSDWPFTFGPGTKVDIK | 3250 | 98.5 | ≥ 10 |  | 
21E7 (antibody, V domains shown) VH: QVTLEESGPVLVKPTETLTLTCTVSGFSLSNARMGVSWIRQPPGKAPEWFAHIFSTDEKSLRLSLRSRLTLSKDTSKSQVVLTMTNMDPVDTATYYCARDSSNYEGYFDYWGQGTLVTVSS VL: DVVLTQSPATLSVSPGERATLSCRASQSVNSNLAWYQQNPGQAPRLLIFGSSTRATGIPASFSGSGSGTEFTLTINSLQSEHSAVYYCQQYNDWPFTFGPGTKVDIK | 3100 | 98.5 | ≥ 10 |  | 
12H6 (antibody, V domains shown) VH: QVTLKESGPVLVKPTETLTLTCTVSGFSLSNARMGVSWIRQPPGKALEWLAHIFSTDEKSIRRSLRSRLTLSKDTSKSQVVLTMTNMDPVDTATYYCARDSSNYEGYFDYWGQGTLVTVSS VL: EVVMTQSPATLSVSPGERATLSCRASQGVSSNFAWYQQRPGQSPRLLLYGASTRATGVPGRFSGSGSGTENILTISSLQSEDFAIYFCQQYKDWPFTFGPGSKVDIK | 3440 | 98.3 | ≥ 10 |  | 
49B11 (antibody, V domains shown) VH: QVTLKESGPVLVKPTETLTLTCTVSGFSLSNVRMGVSWIRQPPGKALEWFAHIFSSDEKSIRRSLRSRLTLSKDTSKSQVVLTMTNMDPVDTATYYCARDSSNYEGYFDYWGQGTLVTVSS VL: EMEVTQSPATLSVSPGERATLSCRASQNIGSDLAWYQQQSGQAPRLLISGASTRATGVPTRFSGSGSGTDFTLTITSLQSEDFAVYYCQQYNDWPFTFGPGTKVDIK | 2980 | 98.5 | ≥ 10 |  | 
20E12 (antibody, V domains shown) VH: EVNLVESGGGLVKPGGSLRLSCEASGFTFSYAWMSWVRQAPGKGLEWVGRIKSIADGGATDYAAPVRNRFTISRDDSRNTLYLEMHSLKTEDTAVYYCTTIPGNDAFDMWGQGTMVTVSS VL: DIVLTQSPLSLSVTPGEPASISCRSSQSLLYSNGKNYLDWFLHKPGQSPQLLIYLGSNRASGVPDRFSGSGSGIDFILKISRVEAEDVGVYYCMQAQQTPITFGQGTRLEIK |  |  | ≥ 10 | 3980 | 97.9
20B9 (antibody, V domains shown) VH: QVTLKESGPVLVKPTETLTLTCTVSGFSLSNARMGVSWIRQPPGKALEWLGHIFSTDEKSYSTSLRGRITISKDTSRGLVVLTLTNMDPVDTATYYCARDSSNYEGYFDFWGPGFLVTVSS VL: EIVMTQSPATLSVSPGERATLSCRVSQSIGANLAWYQQKFGQAPRLLIYGASTRATGIPVRFSGGGSGTEFTLTISSLQSEDFAIYSCQQYIYWPFTFGPGTTVDIK | 3420 | 98.3 | ≥ 10 |  | 
